Results reported in publication PMC10709299.

Target: G6PD Meyer (Arg219Gly) (human) (UniProt P11413)
Assay: SEC; Superdex 200 Increase 10/300, 100 µg recombinant protein loaded, 50 mM Tris-HCl pH 7.5, 150 mM NaCl, 0.5 ml/min; column calibrated with Gel Filtration Standard (Biorad)

stoichiometry N: 2
Substance: G6PD Meyer (Arg219Gly) (from UniProt P11413-3 1-545) (enzyme)
